The record followed here is patent US5609876, “Peptide vaccines and associated methods for protection against feline leukemia virus” (University of Pittsburgh of the Commonwealth System of …, dated 1997).

No end group written: not given here.

The assay addresses T1, PRN4358 (feline leukemia virus (FeLV 61-E gp70)).
T1 peptide: VAPTTVGPKRIGTGDR-NH2
The assay can be described thus: 1H-NMR of an equimolar (5 mM) mixture of PRN42 and PRN4358, amide proton protection in D2O.

As to TPPQAMGPNLVLPDQKPPSRQSQTGSKVATQRPQTNESAPRS-NH2 [PRN42], the binding result was “binds”.
